The results in this text go back to IntAct's records for PubMed 25910212.

B1: Keratin, type II cytoskeletal 2 epidermal (Homo sapiens), P35908 (parent)
chain: MSCQISCKSRGRGGGGGGFRGFSSGSAVVSGGSRRSTSSFSCLSRHGGGGGGFGGGGFGSRSLVGLGGTKSISISVAGGGGGFGAAGGFGGRGGGFGGGSSFGGGSGFSGGGFGGGGFGGGRFGGFGGPGGVGGLGGPGGFGPGGYPGGIHEVSVNQSLLQPLNVKVDPEIQNVKAQEREQIKTLNNKFASFIDKVRFLEQQNQVLQTKWELLQQMNVGTRPINLEPIFQGYIDSLKRYLDGLTAERTSQNSELNNMQDLVEDYKKKYEDEINKRTAAENDFVTLKKDVDNAYMIKVELQSKVDLLNQEIEFLKVLYDAEISQIHQSVTDTNVILSMDNSRNLDLDSIIAEVKAQYEEIAQRSKEEAEALYHSKYEELQVTVGRHGDSLKEIKIEISELNRVIQRLQGEIAHVKKQCKNVQDAIADAEQRGEHALKDARNKLNDLEEALQQAKEDLARLLRDYQELMNVKLALDVEIATYRKLLEGEECRMSGDLSSNVTVSVTSSTISSNVASKAAFGGSGGRGSSSGGGYSSGSSSYGSGGRQSGSRGGSGGGGSISGGGYGSGGGSGGRYGSGGGSKGGSISGGGYGSGGGKHSSGGGSRGGSSSGGGYGSGGGGSSSVKGSSGEAFGSSVTFSFR
B2: Aspartoacylase (Homo sapiens), P45381 (parent)
chain: MTSCHIAEEHIQKVAIFGGTHGNELTGVFLVKHWLENGAEIQRTGLEVKPFITNPRAVKKCTRYIDCDLNRIFDLENLGKKMSEDLPYEVRRAQEINHLFGPKDSEDSYDIIFDLHNTTSNMGCTLILEDSRNNFLIQMFHYIKTSLAPLPCYVYLIEHPSLKYATTRSIAKYPVGIEVGPQPQGVLRADILDQMRKMIKHALDFIHHFNEGKEFPPCAIEVYKIIEKVDYPRDENGEIAAIIHPNLQDQDWKPLHPGDPMFLTLDGKTIPLGGDCTVYPVFVNEAAYYEKKEAFAKTTKLTLNAKSIRCCLH
B3: Fructose-1,6-bisphosphatase 1 (Homo sapiens), P09467 (parent)
chain: MADQAPFDTDVNTLTRFVMEEGRKARGTGELTQLLNSLCTAVKAISSAVRKAGIAHLYGIAGSTNVTGDQVKKLDVLSNDLVMNMLKSSFATCVLVSEEDKHAIIVEPEKRGKYVVCFDPLDGSSNIDCLVSVGTIFGIYRKKSTDEPSEKDALQPGRNLVAAGYALYGSATMLVLAMDCGVNCFMLDPAIGEFILVDKDVKIKKKGKIYSLNEGYARDFDPAVTEYIQRKKFPPDNSAPYGARYVGSMVADVHRTLVYGGIFLYPANKKSPNGKLRLLYECNPMAYVMEKAGGMATTGKEAVLDVIPTDIHQRAPVILGSPDDVLEFLKVYEKHSAQ
partner: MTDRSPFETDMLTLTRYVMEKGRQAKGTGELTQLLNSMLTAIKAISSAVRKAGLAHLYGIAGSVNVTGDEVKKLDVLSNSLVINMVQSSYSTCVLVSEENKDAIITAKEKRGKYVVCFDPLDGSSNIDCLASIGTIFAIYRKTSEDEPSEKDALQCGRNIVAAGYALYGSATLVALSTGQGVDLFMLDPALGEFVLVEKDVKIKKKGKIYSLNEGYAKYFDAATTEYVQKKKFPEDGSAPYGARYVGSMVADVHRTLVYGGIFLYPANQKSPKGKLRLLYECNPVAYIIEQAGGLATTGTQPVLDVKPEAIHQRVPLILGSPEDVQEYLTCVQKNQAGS
B4: E3 ubiquitin-protein ligase TRIM32 (Homo sapiens), Q13049 (parent)
chain: MAAAAASHLNLDALREVLECPICMESFTEEQLRPKLLHCGHTICRQCLEKLLASSINGVRCPFCSKITRITSLTQLTDNLTVLKIIDTAGLSEAVGLLMCRSCGRRLPRQFCRSCGLVLCEPCREADHQPPGHCTLPVKEAAEERRRDFGEKLTRLRELMGELQRRKAALEGVSKDLQARYKAVLQEYGHEERRVQDELARSRKFFTGSLAEVEKSNSQVVEEQSYLLNIAEVQAVSRCDYFLAKIKQADVALLEETADEEEPELTASLPRELTLQDVELLKVGHVGPLQIGQAVKKPRTVNVEDSWAMEATASAASTSVTFREMDMSPEEVVASPRASPAKQRGPEAASNIQQCLFLKKMGAKGSTPGMFNLPVSLYVTSQGEVLVADRGNYRIQVFTRKGFLKEIRRSPSGIDSFVLSFLGADLPNLTPLSVAMNCQGLIGVTDSYDNSLKVYTLDGHCVACHRSQLSKPWGITALPSGQFVVTDVEGGKLWCFTVDRGSGVVKYSCLCSAVRPKFVTCDAEGTVYFTQGLGLNLENRQNEHHLEGGFSIGSVGPDGQLGRQISHFFSENEDFRCIAGMCVDARGDLIVADSSRKEILHFPKGGGYSVLIREGLTCPVGIALTPKGQLLVLDCWDHCIKIYSYHLRRYSTP
B5: Adenosylhomocysteinase (Homo sapiens), P23526 (parent)
chain: MSDKLPYKVADIGLAAWGRKALDIAENEMPGLMRMRERYSASKPLKGARIAGCLHMTVETAVLIETLVTLGAEVQWSSCNIFSTQDHAAAAIAKAGIPVYAWKGETDEEYLWCIEQTLYFKDGPLNMILDDGGDLTNLIHTKYPQLLPGIRGISEETTTGVHNLYKMMANGILKVPAINVNDSVTKSKFDNLYGCRESLIDGIKRATDVMIAGKVAVVAGYGDVGKGCAQALRGFGARVIITEIDPINALQAAMEGYEVTTMDEACQEGNIFVTTTGCIDIILGRHFEQMKDDAIVCNIGHFDVEIDVKWLNENAVEKVNIKPQVDRYRLKNGRRIILLAEGRLVNLGCAMGHPSFVMSNSFTNQVMAQIELWTHPDKYPVGVHFLPKKLDEAVAEAHLGKLNVKLTKLTEKQAQYLGMSCDGPFKPDHYRY
B6: Cyclin-dependent kinase 4 inhibitor C (Homo sapiens), P42773 (parent)
chain: MAEPWGNELASAAARGDLEQLTSLLQNNVNVNAQNGFGRTALQVMKLGNPEIARRLLLRGANPDLKDRTGFAVIHDAARAGFLDTLQTLLEFQADVNIEDNEGNLPLHLAAKEGHLRVVEFLVKHTASNVGHRNHKGDTACDLARLYGRNEVVSLMQANGAGGATNLQ

In one assay the parent is B1. Particulars: with KRT15, P19012.
KRT15, P19012, sequence (P19012 whole entry): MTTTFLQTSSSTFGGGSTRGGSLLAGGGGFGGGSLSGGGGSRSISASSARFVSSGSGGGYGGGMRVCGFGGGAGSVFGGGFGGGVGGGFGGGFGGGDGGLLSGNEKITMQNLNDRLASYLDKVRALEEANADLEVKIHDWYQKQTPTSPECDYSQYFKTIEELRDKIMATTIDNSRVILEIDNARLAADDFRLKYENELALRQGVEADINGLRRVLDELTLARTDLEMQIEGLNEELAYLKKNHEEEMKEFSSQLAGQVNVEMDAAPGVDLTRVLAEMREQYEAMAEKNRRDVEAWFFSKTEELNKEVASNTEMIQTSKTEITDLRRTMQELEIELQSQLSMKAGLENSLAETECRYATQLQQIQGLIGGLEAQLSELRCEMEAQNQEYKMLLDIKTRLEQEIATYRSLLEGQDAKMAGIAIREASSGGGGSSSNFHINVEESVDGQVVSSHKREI
For the variant G219D, the “effect of a mutation on the interaction” value is reported as “with no effect”.

In another assay the parent is B1. Particulars: with KRT40, Q6A162.
KRT40, Q6A162, sequence (Q6A162 whole entry): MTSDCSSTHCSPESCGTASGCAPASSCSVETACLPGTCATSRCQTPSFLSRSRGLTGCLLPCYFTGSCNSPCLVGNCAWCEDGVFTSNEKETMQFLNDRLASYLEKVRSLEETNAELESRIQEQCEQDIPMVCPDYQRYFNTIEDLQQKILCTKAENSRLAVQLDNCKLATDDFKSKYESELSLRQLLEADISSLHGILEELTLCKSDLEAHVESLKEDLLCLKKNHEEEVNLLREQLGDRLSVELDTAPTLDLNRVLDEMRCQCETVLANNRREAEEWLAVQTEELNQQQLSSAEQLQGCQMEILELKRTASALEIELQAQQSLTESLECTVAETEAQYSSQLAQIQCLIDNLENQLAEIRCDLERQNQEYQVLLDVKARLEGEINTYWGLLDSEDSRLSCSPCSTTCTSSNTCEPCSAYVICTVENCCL
Consider G219D, for which the “effect of a mutation on the interaction” value is recorded as “with no effect”.

For the variant L484P, the “effect of a mutation on the interaction” value is “disrupting interaction strength”.

In the next assay the parent is B1. The settings on record: with KRT19, P08727.
KRT19, P08727, sequence (P08727 whole entry): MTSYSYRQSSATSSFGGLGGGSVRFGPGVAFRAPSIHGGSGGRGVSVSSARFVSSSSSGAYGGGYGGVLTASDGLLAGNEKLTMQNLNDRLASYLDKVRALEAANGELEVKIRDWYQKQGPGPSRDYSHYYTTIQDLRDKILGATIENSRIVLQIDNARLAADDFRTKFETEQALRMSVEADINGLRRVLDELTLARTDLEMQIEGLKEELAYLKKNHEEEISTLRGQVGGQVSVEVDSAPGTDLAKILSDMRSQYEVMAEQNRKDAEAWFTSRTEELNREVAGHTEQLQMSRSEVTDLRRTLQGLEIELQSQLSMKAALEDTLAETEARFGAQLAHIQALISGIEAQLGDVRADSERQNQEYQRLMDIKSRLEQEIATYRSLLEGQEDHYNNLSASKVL
G219D: the “effect of a mutation on the interaction” value is reported as “with no effect”.

As for L484P, the “effect of a mutation on the interaction” value is “with no effect”.

Regarding N186K, the “effect of a mutation on the interaction” value was “with no effect”.

Regarding I477N, the “effect of a mutation on the interaction” value is “disrupting interaction strength”.

The variants in a further assay derive from B1. The settings on record: with k1h1_human KRT31, Q15323.
k1h1_human KRT31, Q15323, sequence (Q15323 whole entry): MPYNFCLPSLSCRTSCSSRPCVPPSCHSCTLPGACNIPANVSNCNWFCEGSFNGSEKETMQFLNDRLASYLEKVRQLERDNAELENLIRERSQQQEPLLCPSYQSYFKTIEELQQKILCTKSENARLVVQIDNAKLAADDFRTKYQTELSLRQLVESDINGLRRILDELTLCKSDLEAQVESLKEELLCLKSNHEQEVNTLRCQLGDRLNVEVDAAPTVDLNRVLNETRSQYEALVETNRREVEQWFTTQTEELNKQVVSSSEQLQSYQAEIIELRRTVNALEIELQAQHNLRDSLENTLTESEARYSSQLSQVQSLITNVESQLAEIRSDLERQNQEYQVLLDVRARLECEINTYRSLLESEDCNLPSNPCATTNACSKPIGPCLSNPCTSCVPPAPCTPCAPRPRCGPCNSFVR
As for G219D, the “effect of a mutation on the interaction” value is on record as “with no effect”.

As for L484P, the “effect of a mutation on the interaction” value is “with no effect”.

As to I477N, the “effect of a mutation on the interaction” value was “with no effect”.

In the next assay the parent is B1. The settings on record: with KRT15, P19012. This is another data set of the same source.
For the variant L484P, the “effect of a mutation on the interaction” value was “with no effect”.

N186K: the “effect of a mutation on the interaction” value is given as “with no effect”.

Regarding I477N, the “effect of a mutation on the interaction” value was “with no effect”.

In a further assay the parent is B1. Particulars: with KRT40, Q6A162. The source holds these as a separate data set.
In the case of L484P, the “effect of a mutation on the interaction” value is listed as “with no effect”.

With N186K, the “effect of a mutation on the interaction” value was “with no effect”.

Turning to I477N, the “effect of a mutation on the interaction” value is “disrupting interaction strength”.

A further assay covers variants of B1. The settings on record: with k1h1_human KRT31, Q15323. This is another data set of the same source.
Regarding L484P, the “effect of a mutation on the interaction” value is recorded as “disrupting interaction strength”.

Take N186K: the “effect of a mutation on the interaction” value is on record as “with no effect”.

As to I477N, the “effect of a mutation on the interaction” value is on record as “disrupting interaction strength”.

A further assay covers variants of B2. The settings on record: with keap1_human KEAP1, Q14145.
keap1_human KEAP1, Q14145, sequence (Q14145 whole entry): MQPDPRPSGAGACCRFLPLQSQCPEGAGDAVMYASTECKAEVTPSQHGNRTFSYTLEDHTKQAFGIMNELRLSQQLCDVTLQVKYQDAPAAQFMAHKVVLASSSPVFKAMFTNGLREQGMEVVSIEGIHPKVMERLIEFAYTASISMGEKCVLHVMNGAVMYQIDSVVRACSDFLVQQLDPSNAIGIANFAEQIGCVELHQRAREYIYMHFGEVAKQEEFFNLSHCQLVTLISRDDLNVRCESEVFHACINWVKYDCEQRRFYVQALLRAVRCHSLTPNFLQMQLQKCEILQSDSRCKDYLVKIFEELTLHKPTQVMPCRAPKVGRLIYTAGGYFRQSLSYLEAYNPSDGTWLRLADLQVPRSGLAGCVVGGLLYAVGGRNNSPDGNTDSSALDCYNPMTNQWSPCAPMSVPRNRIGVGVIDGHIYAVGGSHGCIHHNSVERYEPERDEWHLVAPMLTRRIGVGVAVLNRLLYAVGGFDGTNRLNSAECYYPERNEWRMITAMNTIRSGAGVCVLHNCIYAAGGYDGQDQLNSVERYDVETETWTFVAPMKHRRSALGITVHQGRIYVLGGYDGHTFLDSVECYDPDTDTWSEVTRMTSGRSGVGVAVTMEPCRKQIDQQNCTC
Consider E24G, for which the “effect of a mutation on the interaction” value was “with no effect”.

In the case of E285A, the “effect of a mutation on the interaction” value was “disrupting interaction strength”.

Consider M195R, for which the “effect of a mutation on the interaction” value is on record as “with no effect”.

The next assay covers variants of B2. The settings on record: with keap1_human KEAP1, Q14145. The source holds these as a separate data set.
With E24G, the “effect of a mutation on the interaction” value is on record as “causing an interaction”.

As to E285A, the “effect of a mutation on the interaction” value is listed as “causing an interaction”.

As to M195R, the “effect of a mutation on the interaction” value is given as “causing an interaction”.

The variants in a further assay derive from B3. Particulars: with FBP2, O00757.
With N213K, the “effect of a mutation on the interaction” value is given as “with no effect”.

As for G164S, the “effect of a mutation on the interaction” value was “with no effect”.

Consider F194S, for which the “effect of a mutation on the interaction” value is listed as “with no effect”.

In the case of G260R, the “effect of a mutation on the interaction” value is “with no effect”.

Variants of B3 are the subject of another assay. The settings on record: with FBP2, O00757. This is another data set of the same source.
R218K: the “effect of a mutation on the interaction” value is on record as “with no effect”.

Take F194S: the “effect of a mutation on the interaction” value is listed as “disrupting interaction strength”.

As to F233I, the “effect of a mutation on the interaction” value is listed as “with no effect”.

For the variant G260R, the “effect of a mutation on the interaction” value is reported as “disrupting interaction strength”.

In the next assay the parent is B4. The settings on record: with PDE9A.
D487N: the “effect of a mutation on the interaction” value was “disrupting interaction strength”.

Turning to P130S, the “effect of a mutation on the interaction” value is recorded as “with no effect”.

For the variant R394H, the “effect of a mutation on the interaction” value is “disrupting interaction strength”.

The variants in a further assay derive from B4. The settings on record: with praf1_human RABAC1, Q9UI14.
praf1_human RABAC1, Q9UI14, sequence (Q9UI14 whole entry): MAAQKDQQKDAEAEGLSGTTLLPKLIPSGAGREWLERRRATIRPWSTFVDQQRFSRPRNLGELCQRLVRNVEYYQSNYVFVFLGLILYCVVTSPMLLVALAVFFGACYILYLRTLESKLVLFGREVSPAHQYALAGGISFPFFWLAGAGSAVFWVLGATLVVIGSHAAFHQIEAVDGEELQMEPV
With D487N, the “effect of a mutation on the interaction” value is “disrupting interaction strength”.

For the variant P130S, the “effect of a mutation on the interaction” value is reported as “with no effect”.

As to R394H, the “effect of a mutation on the interaction” value is “disrupting interaction strength”.

The variants in another assay derive from B4. Particulars: with ABI2, Q9NYB9-2.
ABI2, Q9NYB9-2, sequence (Q9NYB9 other isoform, or with tags, fused parts or gaps): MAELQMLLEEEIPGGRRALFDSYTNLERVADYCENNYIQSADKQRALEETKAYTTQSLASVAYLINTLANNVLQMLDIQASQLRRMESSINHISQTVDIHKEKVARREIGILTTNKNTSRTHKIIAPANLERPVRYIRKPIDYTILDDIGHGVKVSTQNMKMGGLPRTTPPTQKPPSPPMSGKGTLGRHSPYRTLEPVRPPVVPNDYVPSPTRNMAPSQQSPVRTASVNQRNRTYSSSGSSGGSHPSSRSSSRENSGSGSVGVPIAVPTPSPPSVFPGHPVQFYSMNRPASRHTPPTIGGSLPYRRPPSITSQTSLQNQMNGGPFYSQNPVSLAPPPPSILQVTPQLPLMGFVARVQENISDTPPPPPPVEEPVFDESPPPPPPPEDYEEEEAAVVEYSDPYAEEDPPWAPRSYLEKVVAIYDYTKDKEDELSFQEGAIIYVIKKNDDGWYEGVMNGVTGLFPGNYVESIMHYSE
In the case of D487N, the “effect of a mutation on the interaction” value was “disrupting interaction strength”.

As for P130S, the “effect of a mutation on the interaction” value is “with no effect”.

Turning to R394H, the “effect of a mutation on the interaction” value is given as “disrupting interaction strength”.

Variants of B4 are the subject of a further assay. Particulars: with PDE9A. This is another data set of the same source.
For R394H, the “effect of a mutation on the interaction” value is on record as “with no effect”.

Variants of B5 are the subject of a further assay. The settings on record: with ca050_human C1orf50, Q9BV19.
ca050_human C1orf50, Q9BV19, sequence (Q9BV19 whole entry): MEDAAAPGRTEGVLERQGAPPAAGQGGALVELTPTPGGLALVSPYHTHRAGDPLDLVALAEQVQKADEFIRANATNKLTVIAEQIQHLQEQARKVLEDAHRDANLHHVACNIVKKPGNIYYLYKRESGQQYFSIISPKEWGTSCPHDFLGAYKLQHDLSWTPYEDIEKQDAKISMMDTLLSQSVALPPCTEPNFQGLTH
Consider Y143C, for which the “effect of a mutation on the interaction” value is “with no effect”.

With D86G, the “effect of a mutation on the interaction” value was “with no effect”.

In the case of A89V, the “effect of a mutation on the interaction” value was “with no effect”.

The variants in another assay derive from B5. The settings on record: with ca050_human C1orf50, Q9BV19. The source holds these as a separate data set.
As to D86G, the “effect of a mutation on the interaction” value is “disrupting interaction strength”.

In the next assay the parent is B6. Particulars: with cdk6_human CDK6, Q00534.
cdk6_human CDK6, Q00534, sequence (Q00534 whole entry): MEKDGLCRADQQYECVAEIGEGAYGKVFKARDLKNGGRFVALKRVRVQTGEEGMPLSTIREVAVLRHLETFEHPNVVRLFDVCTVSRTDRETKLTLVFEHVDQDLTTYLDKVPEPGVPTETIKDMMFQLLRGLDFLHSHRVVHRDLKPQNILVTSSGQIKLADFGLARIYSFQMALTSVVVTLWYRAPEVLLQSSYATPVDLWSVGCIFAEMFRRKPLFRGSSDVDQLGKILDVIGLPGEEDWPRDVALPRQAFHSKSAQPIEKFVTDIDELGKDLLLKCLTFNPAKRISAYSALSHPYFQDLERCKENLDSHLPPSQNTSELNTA
For V31L, the “effect of a mutation on the interaction” value was “with no effect”.

Variants of B6 are the subject of the next assay. Particulars: with TCF12, Q99081-3.
On to V31L, for which the “effect of a mutation on the interaction” value was “disrupting interaction strength”.

In the next assay the parent is B6. The settings on record: with NAGK.
Take V31L: the “effect of a mutation on the interaction” value is “disrupting interaction strength”.

The variants in a further assay derive from B6. Particulars: with sahh2_human AHCYL1, O43865.
sahh2_human AHCYL1, O43865, sequence (O43865 whole entry): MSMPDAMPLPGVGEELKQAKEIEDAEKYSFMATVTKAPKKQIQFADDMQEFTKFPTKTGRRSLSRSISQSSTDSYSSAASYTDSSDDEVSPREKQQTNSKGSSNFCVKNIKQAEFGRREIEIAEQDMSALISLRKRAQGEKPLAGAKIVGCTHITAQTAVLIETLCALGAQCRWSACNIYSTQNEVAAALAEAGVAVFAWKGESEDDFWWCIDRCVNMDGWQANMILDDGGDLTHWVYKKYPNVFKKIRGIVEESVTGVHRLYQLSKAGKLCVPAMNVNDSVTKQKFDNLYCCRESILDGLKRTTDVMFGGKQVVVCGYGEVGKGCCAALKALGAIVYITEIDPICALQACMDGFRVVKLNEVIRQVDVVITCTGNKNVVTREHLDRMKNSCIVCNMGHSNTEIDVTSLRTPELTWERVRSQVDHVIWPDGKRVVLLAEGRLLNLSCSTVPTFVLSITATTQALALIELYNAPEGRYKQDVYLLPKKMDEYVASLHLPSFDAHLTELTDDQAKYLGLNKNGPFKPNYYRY
With V31L, the “effect of a mutation on the interaction” value is listed as “disrupting interaction strength”.

In a further assay the parent is B6. Particulars: with TCF4, P15884-3.
TCF4, P15884-3, sequence (P15884 other isoform, or with tags, fused parts or gaps): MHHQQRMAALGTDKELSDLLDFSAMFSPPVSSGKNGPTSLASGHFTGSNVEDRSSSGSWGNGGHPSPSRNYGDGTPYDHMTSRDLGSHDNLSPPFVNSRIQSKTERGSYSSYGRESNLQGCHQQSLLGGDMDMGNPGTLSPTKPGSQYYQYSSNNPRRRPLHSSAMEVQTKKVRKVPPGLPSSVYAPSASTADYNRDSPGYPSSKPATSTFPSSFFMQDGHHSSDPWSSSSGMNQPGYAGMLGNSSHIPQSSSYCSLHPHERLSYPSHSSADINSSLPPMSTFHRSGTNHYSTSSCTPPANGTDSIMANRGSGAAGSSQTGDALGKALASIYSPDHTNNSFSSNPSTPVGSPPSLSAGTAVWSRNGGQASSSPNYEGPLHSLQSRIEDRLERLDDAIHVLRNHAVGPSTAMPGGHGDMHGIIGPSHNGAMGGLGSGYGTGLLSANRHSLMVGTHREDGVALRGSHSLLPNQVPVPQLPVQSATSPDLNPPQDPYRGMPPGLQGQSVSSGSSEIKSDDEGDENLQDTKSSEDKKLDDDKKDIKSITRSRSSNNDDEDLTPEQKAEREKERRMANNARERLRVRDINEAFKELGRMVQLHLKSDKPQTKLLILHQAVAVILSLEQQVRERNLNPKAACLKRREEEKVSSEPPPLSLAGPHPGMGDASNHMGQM
As to V31L, the “effect of a mutation on the interaction” value is recorded as “disrupting interaction strength”.
